First the molecules themselves.
B1: S5A10-h1 (antibody, human IgG1, V domains shown)
VH: QVQLVQSGAEVKKPGSSVKVSCKASDYPFISYTIHWVRQAPGQGLEWMGYINPSNGYTNYNQKFKDRVTITADKSTSTAYMELSSLRSEDTAVYYCARKYGNFYAMDYWGQGTLVTVSS
VL: DIQMTQSPSSLSASVGDRVTITCRASENIYSYLAWYQQKPGKAPKLLIYNAKTLAEGVPSRFSGSGSGTDFTLTISSLQPEDFATYYCQHHYGTPYTFGQGTKLEIK
notes: Humanized, expressed as a human IgG1 whole antibody; also called S5A10VH-h1+S5A10VK-h1; S5A10人源化分子
B2: S5B8VH-h1+S5B8VK-h1 (antibody, human IgG1, V domains shown)
VH: QVQLVQSGAEVKKPGASVKVSCKASGYAFTNSWMHWVRQAPGQRLEWMGEIHPQSGRTNYNEKFKGRVTITRDTSASTAYMELSSLRSEDTAVYYCARDLLQFGNQYYYAMDYWGQGTLVTVSS
VL: DVVMTQSPLSLPVTLGQPASISCRSSQSLVHSNGNTYLHWFQQRPGQSPRRLIYKVSNRFSGVPDRFSGSGSGTDFTLKISRVEAEDVGVYYCSQSTHVPLTFGQGTKLEIK
notes: Humanized, expressed as a human IgG1 whole antibody; also called S5B8人源化分子
B3: S5B8VH-h2+S5B8VK-h1 (antibody, human IgG1, V domains shown)
VH: B2 VH with R44G, I70M, A76T, A79V
VL: B2 VL
notes: as for B2
B4: S5B8VH-h1+S5B8VK-h2 (antibody, human IgG1, V domains shown)
VH: B2 VH
VL: B2 VL with V2I, S7T, L15P, Q17E, F41Y, Q42L, R44K, R50Q, R51L
notes: as for B2
B5: S5B8 (mouse-human chimeric antibody, human IgG1) (antibody, V domains shown)
VH: QVQLQQSGSVLVRPGVSVKLSCKASGYAFTNSWMHWAKQRPGQGLEWIGEIHPQSGRTNYNEKFKGKATLTVDTSSSTAYVDFSSLTSEDSAVYYCARDLLQFGNQYYYAMDYWGQGTSVTVSS
VL: DVVMTQTPLSLPVSLGDQASISCRSSQSLVHSNGNTYLHWYLQKPGQSPKLLIYKVSNRFSGVPDRFSGSGSGTDFTLKISRVEAEDLGVYFCSQSTHVPLTFGAGTKLEMK
notes: Tested as a recombinant human IgG1-kappa/lambda mouse-human chimeric antibody; also called 鼠单抗S5B8
B6: S5B8VH-h2+S5B8VK-h2 (antibody, human IgG1, V domains shown)
VH: B2 VH with R44G, I70M, A76T, A79V
VL: B2 VL with V2I, S7T, L15P, Q17E, F41Y, Q42L, R44K, R50Q, R51L
notes: as for B2
B7: S5E3 (mouse-human chimeric antibody, human IgG1) (antibody)
scFv: QVQLQQSGPEVVKPGASVKMSCKATGYTSRSYWIEWVKQRPGHGLEWIGEILPGSGSTNYNEKFKGKATFTADTSSNTAYMQLSSLTSEDSAVYYCARWDGNYGDFVLDYWGQGTSVTVSSGGGGSGGGGSGGGGSDIQMTQSPSSMYASLGERVTITCKASQDINSYLSWFQQKPGKSPKTLIYRANRLVDGVPSRFSGSGSGQDYFLTISSLEYEDMGIYYCLQYDEFPYTFGGGTKLEMK
notes: Tested as a human IgG1-kappa/lambda chimeric antibody built from the variable domains of this scFv
B8: S5D3 (mouse-human chimeric antibody, human IgG1) (antibody)
scFv: QVQLQQSGAELMKPGASVKISCKATGYTSSSYWIEWVKQRPGHGLEWIGEILPGSGSTNYNEKFKGKATFTADTSSNTAYMQLSSLTSEDSAVYYCARLYDNSYFDYWGQGTSLTVSSGGGGSGGGGSGGGGSDIVMTQSPSSMYASLGERVTITCKASQDINSYLSWFQQKPGKSPKTLIYRANRLVDGVPSRFSGSGSGQDYSLTISSLEYEDMGIYYCLQYDEFPYTFGGGTKLEMK
notes: as for B7
B9: S5B7 (mouse-human chimeric antibody, human IgG1) (antibody)
scFv: QVQLQQPGSVLVRPGASVKLSCKATGYTFSSYWIEWVKQRPGHGLEWIGDILPGTGTTNYNEKFKGKATFTADTSSNTAYMQFSSLTSEDSAVYYCASSYGNYVWGQGTSLTVSSGGGGSGGGGSGGGGSDVVMTQSPASLAVSLGQRATISCKASQSVDYDGDSYMNWYQQKPGQPPRLLIYAASNLESGIPARFSGSGSGTDFTLNIHPVEEEDAATYYCQQGNGAPRTFGGGTKLEIK
notes: as for B7
B10: S5B5 (mouse-human chimeric antibody, human IgG1) (antibody)
scFv: QVKLQQFGAELVKPGASVKISCKATGYTFSSYWIGWVKQRPGHGLEWIGEILPGTGSTNYNEKFKDKATFTADTSPNTAYMQLSSLTSEDSAVYYCARWDGNYGDYALDYWGQGTSVTVSAGGGGSGGGGSGGGGSDIVMTQSPSSMYASLGERVTITCKASQDINSYLSWFQQKPGKSPKTLIYRANRLVDGVPSRFSGSGSGQDYSLTISSLEYEDMGIYYCLQYDEFPYTFGGGTKLEIK
notes: as for B7
B11: S5B4 (mouse-human chimeric antibody, human IgG1) (antibody)
scFv: QVKLQQSGAELMKPGASVKISCKATGYTFSSYWIGWLKQRPGHGLEWVGELLPGSGSTNYNEKFKGKATFTADTSSNTAYMQLSSLTSEDSAVYYCARWDGNYGDYTLDYWGQGTSVTVSSGGGGSGGGGSGGGGSDIVMTQSPSSMYASLGERVTITCKASQDINSYLSWFQQKPGKSPKTLIYRANRLVDGVPSRFSGSGSGQDYSLTISSLEYEDMGIYYCLQYDEFPYTFGGGTKLEMK
notes: as for B7

Changes are numbered by the printed parent chain.

Consider eleven molecules from patent CN108752475A (BEIJING WISDOMAB BIOTECHNOLOGY CO LTD, dated 2018).

T2 sequence (Q5VAN0 44-301): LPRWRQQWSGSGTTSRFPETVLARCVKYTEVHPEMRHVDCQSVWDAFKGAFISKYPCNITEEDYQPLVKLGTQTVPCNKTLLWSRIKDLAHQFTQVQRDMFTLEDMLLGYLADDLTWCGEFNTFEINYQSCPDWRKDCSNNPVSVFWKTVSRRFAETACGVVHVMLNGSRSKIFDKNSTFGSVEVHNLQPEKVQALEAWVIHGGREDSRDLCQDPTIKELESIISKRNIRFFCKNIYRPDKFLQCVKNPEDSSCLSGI

In one experiment the target is T1, 人CD38胞外区 (hCD38) with C-terminal His tag, hCD38-his (human (homo sapiens), UniProt P28907 43-300).
T1 construct: Recombinant, made in HEK293 cells; not shown: His tag added at the C-terminus
Put plainly: SPR (Biacore), antibody captured by anti-human Fc on CM5, hCD38 as analyte, 25 °C. (Surface plasmon resonance follows binding to a sensor surface in real time, without labels.)
For B1, the affinity, expressed as Kd, was 2.73 nM.

The next experiment concerns the target T2, 食蟹猴CD38胞外区 (mfCD38) with C-terminal His tag, mfCD38-his (cynomolgus monkey (Macaca fascicularis), UniProt Q5VAN0 44-301).
T2 construct: not shown: His tag added at the C-terminus
In words: SPR (Biacore), antibody captured by anti-human Fc on CM5, mfCD38 as analyte.
As for B2, binding was put at a Kd of 13.6 nM. Still for that read-out and setting: to B3 belongs 9.66 nM; to B4, 5.15 nM. For the molecule B5, the affinity, expressed as Kd, was 3.14 nM. The same measure, in the same setting: the same measure for B6: 3.48 nM.

The target of the next experiment is T1, 人CD38胞外区 (hCD38) with C-terminal His …. Put plainly: SPR (Biacore), antibody captured by anti-human Fc on CM5, hCD38 as analyte, 25 °C. The source holds these as a separate data set.
Turning to B2, binding was put at a Kd of 0.371 nM. The same measure, in the same setting: the same measure for B3: 0.406 nM; for B4: 0.0894 nM; for B5: 0.178 nM. On the same count and under the same terms, the same measure for B6: 0.0486 nM.

A further experiment concerns the target T3, 小鼠CD38胞外区 (mCD38) with C-terminal His tag, mCD38-his (mouse (mus musculus), UniProt P56528 45-304).
T3 construct: Recombinant, made in HEK293 cells; coated on the ELISA plate; not shown: His tag added at the C-terminus
T3 sequence: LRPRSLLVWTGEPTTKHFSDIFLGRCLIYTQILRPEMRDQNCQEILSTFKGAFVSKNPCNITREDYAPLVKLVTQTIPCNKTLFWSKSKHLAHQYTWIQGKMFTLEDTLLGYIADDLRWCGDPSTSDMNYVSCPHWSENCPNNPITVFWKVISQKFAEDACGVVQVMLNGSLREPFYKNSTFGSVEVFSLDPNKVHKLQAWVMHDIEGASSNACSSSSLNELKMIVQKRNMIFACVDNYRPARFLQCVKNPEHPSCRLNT
Put plainly: ELISA, mCD38-his coated at 1.5 μg/ml, HRP anti-human IgG detection. (In general: In an ELISA, binding on a coated surface is turned into a signal by an enzyme label.)
As for B7, the binding result is “no binding”. As for B8, the binding result is “no binding”. On to B9, for which the binding result is reported as “no binding”. Still for that read-out and setting: the same measure for B5: “no binding”; for B10: “no binding”.

Regarding B11, the binding result is recorded as “no binding”.
